Source: the DeepSol protein solubility set

test: soluble on expression in E. coli; label from the status in PepcDB or PDB records

Row | Sequence | soluble on expression in E. coli
1 | MYGTEQVISGTIIAGPELDPIEGYICVKNGIITEIGEEHTYSANIIAPCFVNAHTHLGDSVCKDPPLGKTSGFRVQKDLDSLVKPPDGLKHRILRDTSYKTLIQYIRKSLLDMIETGTCAFADFREGGVVGLAALNKALEGLNLHSLIFGRPTEPQLPLEVVLAEVRRVLSHSDGLGMSGANDLDMELLQEMTTCTRDRKKLFAIHAGEKNRSDIEKALSLEPDLLIHLTHATKKDLEDVAQTGAPVVVCPRSNFVTGSGMAPIAEMLEAEIRVAAGTDNVMLNSVNMFAEMEFMSKVFSIEDRQVFKICTLNGSFVMGPDSTGSIEKGNKANLMILNGSSNNLAGIKDPISGITKRARPDDILAVLHS | soluble
2 | MAHHHHHHMGTLEAQTQGPGSMNDYKLFRCIQCGFEYDEALGWPEDGIAAGTRWDDIPDDWSCPDCGAAKSDFEMVEVARS | soluble
3 | MNNNDIIRRLRYTFDFNDDKMIQLFALADQQVTRAEISNWMKKDDDPDFKELYDKELAVFLNGFIIDKRGKKDGQTPVAEKSLNNNIIFRKLKIALNLQDDDILDILELADMRFGKHELSALFRNPDQSQFRPCKDQVLRNFIHGLQLKYRKE | not soluble
4 | MGSDKIHHHHHHMNTYHPFSLTTPSTLMIQDWAQTNQNNKEVIAGFTTKNGGVSQKPFESLNTGLHVHDKDADVVKNREYIADMFNTDLQSWVFADQTHDNRVQKVTQRDRGKGAREYHTALKATDGIYTNEKNVFLALCFADCVPLFFYDPVKSLVGVAHAGWKGTVKQIGREMVKQWTEKEGSNPSDIYAVIGPSISGACYTVDDRVMDAVRALPVSADLAANQTAKAQYQLDLKELNRLILMDSGLASEQISVSGLCTESEPSLFYSHRRDQGKTGRMMSFIGMKEA | not soluble
5 | MQIQTPDWVKHAVFYQIFPDRFARSKQPRKRLLQEARWEDWDSMPTLQGYKGGDLWGIMEDLDYIQNLGINAIYFTPIFQSASNHRYHTHDYYQVDPMLGGNEAFKELLDAAHQRNIKVVLDGVFNHSSRGFFFFHDVLENGPHSPWVNWFKIEGWPLSPYNGEFPANYVGWAGNRALPEFNHDNPEVREYIMEIAEYWLKFGIDGWRLDVPFEIKTPGFWQEFRDRTKAINPEAYIVGEVWGDSRQWLDGTQFDGVMNYLFAGPTIAFAAGDRVVLEQVQSRDYQPYPPLFAAEYATKIQEVLQLYPWEIQLTQLNLLASHDTARLMTIAGGDIASVELSTLLLLTFPGAPSIYYGDEVGLPGGIDPDSRRGFPLEANWNQEIFNTHRQLITIRQTYPALRTGDYQVLYAQGQLYLFARTLGTEELIIAINAGTSSATANVDVASLHTQPNKLLYGTAEAEWNGEEGTQQLSLTLPARSGCILGTGD | soluble
6 | MELSSEHKALFSLLRAGLWEREPDDLSPFPLTDAQWWNVYRMAVRQTVTGIVCRGLHHLPEALLPGDALMIRWVAETDRIERKNRRMDAVVCLLAQRMGRNGLHPVLLKGQGVAAFYEHPLTRECGDIDLCFLSEEEEREAAELMRRVGCRTEKQPDGSNCYSWQGVEVEHHTRLFDLHNPLLKVYLSALVREHGFTEFRPGGRDGLPEGNQSGEFPATISVPSPLPNLLLLNAHLLKHLLGHGVGLRQFCDMARAYHTLCGSYSPEGLEAVYRRTGLLRWSAQLHTFLTEYLGLHRAELPYADTDACSSPELLRIVLEGGNFGQYGGTKGKASQARWERKLRTFLSFWKHRGFSSAYARKEAFWISVRLIIGNLR | not soluble
7 | MNRLPTCLLAATLFLGSASLYAEDPACARVRLADPGWSDIAVTNATAAFLLESLGYQVKIDTLSVPIIYGGLRDGQVDAFLGGWMPAHQDYHDKFVASGQVERLGRNLDGTRFTLAVPRYVWDAGVHRFEDLAAQGQRFNRKLYGIGSGAPANQSIQKMIDANQFGLGDWKLVESSEQAMLAELGRAEKRQRWLVFLGWTPHPMNIRHDLRYLEGGEQYFGDRGQVYTLARKGYAAQCPNPARLLANLRFDLDMENRLMSDALEGTATPASATRAWLKANPRVLEAWLQGVTSRDGGDALAAVRGQP | not soluble
8 | MCMVHTYLGETINFHITYKKKKSVRLFVDSYGNVEVQAPKGTPVEYLIQLLEEKWDWIQTTRKEMAERARGPQEKDYDQGEGFLYLGNTYPIQISQDANITQDNAVFEKDRLHIYVKELKDEKIQQALKRFYYKQKSLVEKSIKAHQSNFKTKPRSIRITDSSRTWGTCDSNLQLTFNWKLAMAPQRVIDYVVVHEMCHMVHLNHDRSFWRLVGKIMPDYKEMENWLALSSWKMTVMAGDPLEHHHHHH | soluble
9 | ASLIEDIDKKHLVLLRDGRTLIGFLRSIDQFANLVLHQTVERIHVGKKYGDIPRGIFVVRGENVVLLGEI | not soluble
